Results published in the supplement of paper PMC10567573.

B1: HDAC6 (parent)
chain: KMKTRELHRESSNFDSIYICPSTF
B2: STK38L (parent)
chain: RQLAYSTVGTPDYIAPEVFMQTGY

Variants of: B1
Assay: protein stability index of a GFP-peptide fusion (GPS, HEK-293T) (PSI 1-6); higher = more stable
Conditions: c terminus: a fixed tail appended
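Note: lentivirally expressed fusions sorted by FACS into six bins by GFP to DsRed ratio, PSI derived from sequencing read proportions per bin multiplied by bin number.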

Protein stability index: each site, then its substitutions
S12: C 1.89 | Y 1.53 | E 3.25 | A 2.34 | R 1.95 | T 2.17 | V 2.38 | M 1.55 | K 2.74 | D 2.29 | I 1.94 | L 1.83 | G 3.05 | N 2.04
E6: I 1.83 | H 1.96 | V 2.23 | M 1.6 | F 1.86 | W 1.76 | S 2.2 | G 1.57 | L 1.44 | N 2.32
E10: M 2.62 | V 2.04 | G 3.45 | L 2.15 | Q 1.78 | A 2.51 | N 2.98 | H 1.87 | Y 1.56 | C 2.18
D15: L 4.27 | M 1.92 | T 1.9 | C 2.82 | R 1.89 | N 2.01 | P 1.68 | K 1.79 | H 1.44 | E 1.93 | V 2.11 | Y 1.63 | W 2.21 | S 2.04 | G 1.69
S16: H 1.99 | F 2.08 | G 2.14 | L 1.74 | Y 1.85 | T 2.62 | M 1.66 | I 1.54 | R 2.83 | K 2.29 | A 1.88 | V 2.12 | N 1.31 | E 3.02 | P 2.47 | C 1.76
K3: M 1.5 | A 2.62 | L 1.71 | G 2.08 | H 2.04 | N 2.32 | D 2.59 | C 2.43 | I 1.68 | S 2.81 | E 2.94 | T 2.2 | R 2.42 | V 2.3
F24: H 2.76 | S 2.96 | E 3.87 | P 2.75 | D 3.99 | C 2.97 | K 3.36 | Q 2.62 | Y 2.88 | M 2.65 | N 2.95 | T 3.65 | A 3.73 | W 2.65 | R 2.98 | G 3.15 | I 2.31
S11: F 1.71 | N 2.3 | C 1.75 | T 2.41 | A 1.87 | R 1.71 | P 2.13 | D 2.54 | W 2.85 | V 2.3 | Q 2.36 | M 1.61 | H 3.04
I19: S 2.35 | K 2.94 | E 3.81 | L 3.14 | W 3.01 | T 2.25 | D 3.44 | Q 3.2 | P 3.35 | Y 2.16 | N 3.22 | A 2.74 | M 1.44 | V 2.8 | G 2.91
N13: K 2.23 | T 2.35 | V 1.98 | M 2.58 | Q 2.44 | S 1.97 | A 1.93 | H 1.58 | W 1.93 | C 1.79
C20: Y 2.07 | M 2.17 | T 2.76 | A 2.86 | I 1.69 | G 2.22 | Q 3.13 | D 2.54 | V 2.24 | F 2.21 | K 2.15 | H 2.94 | E 3.34
R9: W 1.78 | H 2.15 | Y 2.09 | M 1.84 | N 2.4 | K 2.8 | L 2.07 | P 2.45 | S 2.27 | D 2.45 | F 1.39 | I 1.86
R5: S 2.21 | C 1.91 | A 1.98 | E 2.73 | K 2.38 | W 1.72 | G 2.39 | H 2.88 | V 2.27 | P 2.36 | L 3.32 | D 2.62
F14: L 2.41 | T 3.11 | R 1.7 | I 2.58 | K 3.03 | P 2.99 | H 2.88 | V 2.68 | E 3.34 | N 3.05 | Y 1.78 | S 2.8 | W 2.01 | D 2.79 | M 2.44 | C 2.24
L7: S 3.05 | E 3.2 | C 1.75 | D 2.73 | M 1.46 | H 3.02 | A 3.33 | K 3.11 | T 2.77 | R 3.2
K1: E 2.84 | W 1.98 | Y 1.59 | S 2.3 | V 2.33 | A 2.28 | H 1.9 | I 1.86 | C 1.7 | D 3.04 | Q 2.23 | L 1.83 | N 2.12 | M 1.83 | R 1.38
I17: W 2.06 | R 2.97 | C 2.49 | T 3.25 | H 3.15 | L 2.13 | M 2.57 | V 2.27 | N 2.9 | A 2.96 | Q 2.48 | F 1.85 | E 3.19
T4: D 2.89 | E 1.99 | L 1.72 | I 1.85 | F 2.11 | Y 2 | C 1.34 | A 2.29 | K 2.39 | Q 2.26 | H 1.95 | M 1.65 | R 2.41 | W 2.19 | G 2.83
Y18: F 2.05 | M 2.4 | H 2.41 | W 2.38 | D 3.8 | K 2.44 | E 3.45 | L 2.82 | Q 2.96 | S 2.72 | N 3.56 | A 4.07 | V 2.86 | T 3.32 | R 2.52 | C 2.29
M2: F 2.04 | N 2.37 | A 3.17 | C 2.28 | T 2.59 | H 2.43 | P 2.96 | D 2.75 | K 2.91 | R 2.12 | V 1.66 | Y 2.11 | S 2.37 | W 2.21 | E 2.6
T23: W 1.62 | L 2.21 | M 2.44 | C 2.5 | D 2.56 | N 3 | S 2.59 | P 2.61 | I 1.71 | K 2.25 | H 2.28 | Y 1.83 | F 1.96 | R 2.05 | G 2.46 | V 2.92
S22: I 1.65 | E 2.66 | Y 1.98 | Q 1.78 | T 1.74 | D 2.76 | F 2.19 | N 2.13 | P 2.65 | L 1.42 | C 1.85 | G 2.06 | W 3.05 | A 2.14 | M 1.42 | K 3.33
H8: K 2.5 | T 2.21 | E 2.32 | I 1.38 | D 2.22 | W 1.83 | L 1.97 | S 2.92 | M 1.97 | A 1.98 | P 2.56 | G 2.15 | R 2.22 | C 1.6
P21: H 1.34 | E 1.91 | C 2.71 | G 1.95 | V 2.33 | Q 1.94 | R 1.78 | K 2.32 | T 1.54 | S 1.74 | D 2.91

Variants of: B2
Assay: as above
Conditions: c terminus: a fixed tail appended

Protein stability index, by site and new letter:
Y24: W 2.33 | Q 3.53 | T 3.42 | N 3.35 | R 3.06 | P 3.25
